Laboratory results taken from article PMC2613882, “The FF domains of yeast U1 snRNP protein Prp40 mediate interactions with Luc7 and Snu71” (BMC Biochemistry, 2008).

Assays:
[1] = biological target: T1, GST-Prp40FF1 (amino acids 129-201) (Saccharomyces cerevisiae, UniProt P33203 129-201); test: peptide or protein array; SPOT 15-mer peptides (3 aa shifts; alanine scan and substitution analysis of A24) on a β-alanine membrane, probed overnight at 4°C with 10 μg/ml purified GST fusion protein, detected with anti-GST antibody; conditions: both partners purified
T1 construct: Prp40, S. cerevisiae, residues 129-201 (Prp40FF1); also called GST-FF1; source: E. coli BL21, purified (glutathione Sepharose 4B)
T1 sequence (looked up): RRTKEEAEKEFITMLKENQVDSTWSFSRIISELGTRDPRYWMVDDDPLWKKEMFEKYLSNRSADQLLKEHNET

[2] = biological target: T2, GST-Prp40FF1-2 (amino acids 129-264) (Saccharomyces cerevisiae, UniProt P33203 129-264); test: as above; conditions: both partners purified
T2 construct: Prp40, S. cerevisiae, residues 129-264 (Prp40FF1-2); also called GST-FF1-2; source: E. coli BL21, purified (glutathione Sepharose 4B)
T2 sequence (looked up): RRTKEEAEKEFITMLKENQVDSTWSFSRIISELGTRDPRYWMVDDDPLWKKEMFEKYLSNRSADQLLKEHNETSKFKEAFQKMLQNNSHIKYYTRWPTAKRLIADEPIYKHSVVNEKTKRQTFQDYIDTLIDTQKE

| Binder | binding result [1] | binding result [2] |
| --- | --- | --- |
| DRRLADHFLGKIHLG (also called A24 peptide) [Luc7 peptide A24, D214RRLADHFLGKIHLG228] | binds | binds |
| HLANDVHYDHHRSFK (Snu71, S. cerevisiae, residues 418-432) [Snu71 peptide B1, H418LANDVHYDHHRSFK432] |  | binds |
